# Changes are numbered by the printed parent chain. Ends that are not written are not given here.
# B1: Flo8 (KYTAIHEWYKAHNGGA-NH2) (peptide)
# peptide: KYTAIHEWYKAHNGGA-NH2
# notes: Phage display hit selected on oligomeric WT C-region; Immobilised on the BLI sensor by EDC/NHS coupling
# B2: Flo3 (HISMQTYKWSQWAKHQ-NH2) (peptide)
# peptide: HISMQTYKWSQWAKHQ-NH2
# notes: as for B1
# B3: Flo6 (SNWHPRHFFMSPSSPQ-NH2) (peptide)
# peptide: SNWHPRHFFMSPSSPQ-NH2
# notes: as for B1
# B4: Flo11 (TSGVPWWKFQQQVRRT-NH2) (peptide)
# peptide: TSGVPWWKFQQQVRRT-NH2
# notes: as for B1
# B5: Flm9 (PWYNAPHSHGFWGSGR-NH2) (peptide)
# peptide: PWYNAPHSHGFWGSGR-NH2
# notes: Phage display hit selected on monomeric WT C-region; Immobilised on the BLI sensor by EDC/NHS coupling
# B6: Flm11 (HKLHHLLKWENQHKVE-NH2) (peptide)
# peptide: HKLHHLLKWENQHKVE-NH2
# notes: as for B5
# B7: Flm6 (WNHPMNIRSISWHKDS-NH2) (peptide)
# peptide: WNHPMNIRSISWHKDS-NH2
# notes: as for B5
# B8: Flo1 (FPHPTLKHREFMRHVS-NH2) (peptide)
# peptide: FPHPTLKHREFMRHVS-NH2
# notes: as for B1
# B9: Flm5 (GIKSLISNKMHTQWNY-NH2) (peptide)
# peptide: GIKSLISNKMHTQWNY-NH2
# notes: as for B5
# B10: Flm1 (IWAGHIHDWWRRGQGS-NH2) (peptide)
# peptide: IWAGHIHDWWRRGQGS-NH2
# modifications: not fully specified; printed as IWAGHIHDWWRRGQGS-NH2
# notes: as for B5
# B11: Flm2 (AWQHHELKWKQYQGWR-NH2) (peptide)
# peptide: AWQHHELKWKQYQGWR-NH2
# notes: as for B5
# B12: Flo5 (QDNPWWHEHKHWKSWP-NH2) (peptide)
# peptide: QDNPWWHEHKHWKSWP-NH2
# notes: as for B1
# Key:
# Assay in all cases: BLI (Octet), peptide immobilised, protein 2 µM; KD = koff/kon
# [1] = molecular target: DISC1 C-region mutant L807-frameshift (human) (UniProt Q9NRI5)
# [2] = molecular target: T1, DISC1 C-region (residues 691-836) mutant S713E (human, UniProt Q9NRI5 691-836)
# T1 construct: range 691-836; Expression and tag are described only for the WT construct (N-terminal His6)
# T1 sequence (looked up): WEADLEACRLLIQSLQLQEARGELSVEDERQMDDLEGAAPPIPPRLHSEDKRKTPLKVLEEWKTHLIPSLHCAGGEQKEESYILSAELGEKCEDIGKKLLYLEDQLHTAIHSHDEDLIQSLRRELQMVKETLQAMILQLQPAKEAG
# [3] = molecular target: T2, wild-type (WT) human DISC1 C-region (residues 691-836) (human, UniProt Q9NRI5 691-836)
# T2 construct: range 691-836; Expressed in E. coli as an N-terminal His6 fusion construct, purified on Co2+-NTA and by size exclusion; Used in solution at 2 µM in BLI; also called WT C-region; C-region of DISC1; not shown: N-terminal His6 fusion tag
# T2 sequence (looked up): T1 sequence (looked up) with E23S
# [4] = molecular target: T3, DISC1 C-region (residues 691-836) mutant S704C (human, UniProt Q9NRI5 691-836)
# T3 construct: range 691-836; Expression and tag are described only for the WT construct (N-terminal His6)
# T3 sequence (looked up): T1 sequence (looked up) with S14C, E23S
Binder,Kd [1],Kd [2],Kd [3],Kd [4]
IWAGHIHDWWRRGQGS-NH2 (not fully specified; printed as IWAGHIHDWWRRGQGS-NH2) [Flm1 (…-NH2)],200 nM,–,–,–
KYTAIHEWYKAHNGGA-NH2 [Flo8 (…-NH2)],170 nM,–,–,–
GIKSLISNKMHTQWNY-NH2 [Flm5 (…-NH2)],110 nM,–,–,–
B1,–,460 nM,2620 nM,1040 nM
B2,–,420 nM,2620 nM,270 nM
PWYNAPHSHGFWGSGR-NH2 [Flm9 (…-NH2)],390 nM,–,–,–
SNWHPRHFFMSPSSPQ-NH2 [Flo6 (…-NH2)],170 nM,–,–,–
HKLHHLLKWENQHKVE-NH2 [Flm11 (…-NH2)],540 nM,–,–,–
B3,–,460 nM,2360 nM,720 nM
B4,–,890 nM,3680 nM,1060 nM
B5,–,1500 nM,3200 nM,1490 nM
B6,–,420 nM,1270 nM,720 nM
WNHPMNIRSISWHKDS-NH2 [Flm6 (…-NH2)],530 nM,–,–,–
HISMQTYKWSQWAKHQ-NH2 [Flo3 (…-NH2)],400 nM,–,–,–
B7,–,1070 nM,2010 nM,2240 nM
B8,–,70 nM,100 nM,160 nM
B9,–,80 nM,640 nM,150 nM
B10,–,80 nM,150 nM,80 nM
AWQHHELKWKQYQGWR-NH2 [Flm2 (…-NH2)],110 nM,–,–,–
QDNPWWHEHKHWKSWP-NH2 [Flo5 (…-NH2)],270 nM,–,–,–
FPHPTLKHREFMRHVS-NH2 [Flo1 (…-NH2)],40 nM,–,–,–
TSGVPWWKFQQQVRRT-NH2 [Flo11 (…-NH2)],160 nM,–,–,–
B11,–,220 nM,640 nM,150 nM
B12,–,210 nM,250 nM,360 nM

# From patent publication EP4296276A1 (Forschungszentrum Jülich GmbH, dated 2023)
